Reference: patent publication US20100120665A1

Tests used:
Experiment in all cases: cell-based or functional assay
[1] = molecular target: human complement factor D (human) (UniProt P00746)
[2] = molecular target: mouse factor B (endogenous, in diluted whole mouse serum) (mouse) (UniProt P04186)
[3] = molecular target: purified human factor B protein (Quidel, Catalog# A408) (human) (UniProt P00751)
Sequence of UniProt P00751 (P00751 26-764): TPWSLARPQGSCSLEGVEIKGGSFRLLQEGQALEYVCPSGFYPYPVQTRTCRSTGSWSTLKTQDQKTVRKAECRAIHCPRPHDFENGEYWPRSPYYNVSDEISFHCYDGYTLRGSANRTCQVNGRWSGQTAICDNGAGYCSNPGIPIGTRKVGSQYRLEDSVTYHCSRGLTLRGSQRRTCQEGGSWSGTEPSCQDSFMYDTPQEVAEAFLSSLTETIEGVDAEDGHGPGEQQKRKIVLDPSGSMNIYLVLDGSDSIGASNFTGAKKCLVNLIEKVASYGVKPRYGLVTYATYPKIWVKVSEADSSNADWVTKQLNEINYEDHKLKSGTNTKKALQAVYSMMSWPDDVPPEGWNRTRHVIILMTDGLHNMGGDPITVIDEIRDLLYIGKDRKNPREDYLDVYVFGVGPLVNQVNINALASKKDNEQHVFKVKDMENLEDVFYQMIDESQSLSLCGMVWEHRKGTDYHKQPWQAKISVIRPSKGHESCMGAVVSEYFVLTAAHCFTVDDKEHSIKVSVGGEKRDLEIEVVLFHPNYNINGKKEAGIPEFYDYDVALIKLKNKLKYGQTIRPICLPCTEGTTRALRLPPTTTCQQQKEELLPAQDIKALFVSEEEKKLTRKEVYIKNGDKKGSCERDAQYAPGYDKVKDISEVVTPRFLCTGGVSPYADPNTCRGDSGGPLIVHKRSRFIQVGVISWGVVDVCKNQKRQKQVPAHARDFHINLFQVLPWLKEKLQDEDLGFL

Sequence of UniProt P00746 (P00746 26-253 limits assumed): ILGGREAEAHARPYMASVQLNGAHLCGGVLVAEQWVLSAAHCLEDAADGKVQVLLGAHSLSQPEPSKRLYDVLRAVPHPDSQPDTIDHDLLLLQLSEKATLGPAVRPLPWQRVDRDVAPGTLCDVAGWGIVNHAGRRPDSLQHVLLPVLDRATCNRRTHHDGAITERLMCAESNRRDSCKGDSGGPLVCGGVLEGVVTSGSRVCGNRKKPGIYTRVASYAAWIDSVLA
Sequence of UniProt P04186 (P04186 23-761): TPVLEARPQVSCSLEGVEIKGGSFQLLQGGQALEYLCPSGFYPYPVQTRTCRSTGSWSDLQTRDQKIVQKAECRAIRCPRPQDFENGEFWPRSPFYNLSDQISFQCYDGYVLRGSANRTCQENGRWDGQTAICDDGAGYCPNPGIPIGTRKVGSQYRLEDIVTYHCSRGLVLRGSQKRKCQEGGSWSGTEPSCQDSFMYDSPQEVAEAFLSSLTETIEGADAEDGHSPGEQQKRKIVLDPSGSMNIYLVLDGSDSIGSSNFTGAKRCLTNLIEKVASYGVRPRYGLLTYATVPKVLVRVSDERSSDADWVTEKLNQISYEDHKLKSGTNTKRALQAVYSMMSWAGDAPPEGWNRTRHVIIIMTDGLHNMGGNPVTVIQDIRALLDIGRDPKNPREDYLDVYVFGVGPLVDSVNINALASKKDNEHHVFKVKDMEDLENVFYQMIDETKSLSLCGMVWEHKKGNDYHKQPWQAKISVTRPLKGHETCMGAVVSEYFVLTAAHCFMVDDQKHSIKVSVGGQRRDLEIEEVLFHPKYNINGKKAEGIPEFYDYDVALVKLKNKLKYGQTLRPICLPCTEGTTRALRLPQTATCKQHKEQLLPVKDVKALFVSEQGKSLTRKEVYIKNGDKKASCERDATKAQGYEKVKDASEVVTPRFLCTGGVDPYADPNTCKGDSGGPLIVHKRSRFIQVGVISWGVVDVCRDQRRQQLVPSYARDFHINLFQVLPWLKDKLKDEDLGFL

“isotype matched mouse control IgG (eBioscience, Catalog# 14-4732) (antibody)” was tested. Which hemolysis OD 405 nm; Control IgG 5 ng + Purified hfB protein 0.5 ug [1] did it give?
The hemolysis OD 405 nm; Control IgG 5 ng + Purified hfB protein 0.5 ug was 0.428 OD 405 nm.

What about the hemolysis OD 405 nm; Control IgG 10 ng + Purified hfB protein 0.5 ug [1] of the same substance?
Its hemolysis OD 405 nm; Control IgG 10 ng + Purified hfB protein 0.5 ug is 0.361 OD 405 nm.

And the hemolysis OD 405 nm; Control IgG 20 ng + Purified hfB protein 0.5 ug [1]?
Its hemolysis OD 405 nm; Control IgG 20 ng + Purified hfB protein 0.5 ug is 0.441 OD 405 nm.

And the hemolysis OD 405 nm; Control IgG 30 ng + Purified hfB protein 0.5 ug [1]?
The hemolysis OD 405 nm; Control IgG 30 ng + Purified hfB protein 0.5 ug was 0.392 OD 405 nm.

What about the hemolysis OD 405 nm; Control IgG 40 ng + Purified hfB protein 0.5 ug [1] of the same substance?
The hemolysis OD 405 nm; Control IgG 40 ng + Purified hfB protein 0.5 ug was 0.426 OD 405 nm.

What about the hemolysis OD 405 nm; Control IgG 50 ng + Purified hfB protein 0.5 ug [1] of the same substance?
Its hemolysis OD 405 nm; Control IgG 50 ng + Purified hfB protein 0.5 ug is 0.43 OD 405 nm.

And the hemolysis OD 405 nm; Control IgG 60 ng + Purified hfB protein 0.5 ug [1]?
Its hemolysis OD 405 nm; Control IgG 60 ng + Purified hfB protein 0.5 ug is 0.416 OD 405 nm.

What about the hemolysis OD 405 nm; Control IgG 70 ng + Purified hfB protein 0.5 ug [1] of the same substance?
Its hemolysis OD 405 nm; Control IgG 70 ng + Purified hfB protein 0.5 ug is 0.395 OD 405 nm.

What about the hemolysis OD 405 nm; Control IgG 80 ng + Purified hfB protein 0.5 ug [1] of the same substance?
The hemolysis OD 405 nm; Control IgG 80 ng + Purified hfB protein 0.5 ug was 0.387 OD 405 nm.

What about the hemolysis OD 405 nm; Control IgG 90 ng + Purified hfB protein 0.5 ug [1] of the same substance?
Its hemolysis OD 405 nm; Control IgG 90 ng + Purified hfB protein 0.5 ug is 0.347 OD 405 nm.

What about the hemolysis OD 405 nm; Control IgG 100 ng + Purified hfB protein 0.5 ug [1] of the same substance?
The hemolysis OD 405 nm; Control IgG 100 ng + Purified hfB protein 0.5 ug was 0.397 OD 405 nm.

What about the hemolysis OD 405 nm; Control IgG 150 ng + Purified hfB protein 0.5 ug [1] of the same substance?
The hemolysis OD 405 nm; Control IgG 150 ng + Purified hfB protein 0.5 ug was 0.426 OD 405 nm.

And the hemolysis OD 405 nm; Control IgG 200 ng + Purified hfB protein 0.5 ug [1]?
The hemolysis OD 405 nm; Control IgG 200 ng + Purified hfB protein 0.5 ug was 0.347 OD 405 nm.

And the hemolysis OD 405 nm; Control IgG 400 ng + Purified hfB protein 0.5 ug [1]?
The hemolysis OD 405 nm; Control IgG 400 ng + Purified hfB protein 0.5 ug was 0.506 OD 405 nm.

And the hemolysis OD 405 nm; Control IgG 800 ng + Purified hfB protein 0.5 ug [1]?
Its hemolysis OD 405 nm; Control IgG 800 ng + Purified hfB protein 0.5 ug is 0.538 OD 405 nm.

What about the hemolysis OD 405 nm; Control IgG 1600 ng + Purified hfB protein 0.5 ug [1] of the same substance?
Its hemolysis OD 405 nm; Control IgG 1600 ng + Purified hfB protein 0.5 ug is 0.618 OD 405 nm.

What about the hemolysis OD 405 nm; Control IgG 2400 ng + Purified hfB protein 0.5 ug [1] of the same substance?
The hemolysis OD 405 nm; Control IgG 2400 ng + Purified hfB protein 0.5 ug was 0.588 OD 405 nm.

For “monoclonal anti-human factor D antibody (Affinity Bioreagents, Catalog# GAU008-01-02)”, which hemolysis OD 405 nm; Anti-hfD mAb 5 ng + Purified hfB protein 0.5 ug [1] is on record?
The hemolysis OD 405 nm; Anti-hfD mAb 5 ng + Purified hfB protein 0.5 ug was 0.373 OD 405 nm.

And the hemolysis OD 405 nm; Anti-hfD mAb 10 ng + Purified hfB protein 0.5 ug [1]?
Its hemolysis OD 405 nm; Anti-hfD mAb 10 ng + Purified hfB protein 0.5 ug is 0.432 OD 405 nm.

And the hemolysis OD 405 nm; Anti-hfD mAb 20 ng + Purified hfB protein 0.5 ug [1]?
Its hemolysis OD 405 nm; Anti-hfD mAb 20 ng + Purified hfB protein 0.5 ug is 0.369 OD 405 nm.

What about the hemolysis OD 405 nm; Anti-hfD mAb 30 ng + Purified hfB protein 0.5 ug [1] of the same substance?
The hemolysis OD 405 nm; Anti-hfD mAb 30 ng + Purified hfB protein 0.5 ug was 0.235 OD 405 nm.

And the hemolysis OD 405 nm; Anti-hfD mAb 40 ng + Purified hfB protein 0.5 ug [1]?
Its hemolysis OD 405 nm; Anti-hfD mAb 40 ng + Purified hfB protein 0.5 ug is 0.227 OD 405 nm.

What about the hemolysis OD 405 nm; Anti-hfD mAb 50 ng + Purified hfB protein 0.5 ug [1] of the same substance?
The hemolysis OD 405 nm; Anti-hfD mAb 50 ng + Purified hfB protein 0.5 ug was 0.165 OD 405 nm.

And the hemolysis OD 405 nm; Anti-hfD mAb 60 ng + Purified hfB protein 0.5 ug [1]?
The hemolysis OD 405 nm; Anti-hfD mAb 60 ng + Purified hfB protein 0.5 ug was 0.126 OD 405 nm.

And the hemolysis OD 405 nm; Anti-hfD mAb 70 ng + Purified hfB protein 0.5 ug [1]?
Its hemolysis OD 405 nm; Anti-hfD mAb 70 ng + Purified hfB protein 0.5 ug is 0.103 OD 405 nm.

What about the hemolysis OD 405 nm; Anti-hfD mAb 80 ng + Purified hfB protein 0.5 ug [1] of the same substance?
The hemolysis OD 405 nm; Anti-hfD mAb 80 ng + Purified hfB protein 0.5 ug was 0.078 OD 405 nm.

What about the hemolysis OD 405 nm; Anti-hfD mAb 90 ng + Purified hfB protein 0.5 ug [1] of the same substance?
Its hemolysis OD 405 nm; Anti-hfD mAb 90 ng + Purified hfB protein 0.5 ug is 0.058 OD 405 nm.

And the hemolysis OD 405 nm; Anti-hfD mAb 100 ng + Purified hfB protein 0.5 ug [1]?
The hemolysis OD 405 nm; Anti-hfD mAb 100 ng + Purified hfB protein 0.5 ug was 0.061 OD 405 nm.

And the hemolysis OD 405 nm; Anti-hfD mAb 150 ng + Purified hfB protein 0.5 ug [1]?
Its hemolysis OD 405 nm; Anti-hfD mAb 150 ng + Purified hfB protein 0.5 ug is 0.035 OD 405 nm.

And the hemolysis OD 405 nm; Anti-hfD mAb 200 ng + Purified hfB protein 0.5 ug [1]?
Its hemolysis OD 405 nm; Anti-hfD mAb 200 ng + Purified hfB protein 0.5 ug is 0.029 OD 405 nm.

What about the hemolysis OD 405 nm; Anti-hfD mAb 400 ng + Purified hfB protein 0.5 ug [1] of the same substance?
The hemolysis OD 405 nm; Anti-hfD mAb 400 ng + Purified hfB protein 0.5 ug was 0.022 OD 405 nm.

And the hemolysis OD 405 nm; Anti-hfD mAb 800 ng + Purified hfB protein 0.5 ug [1]?
Its hemolysis OD 405 nm; Anti-hfD mAb 800 ng + Purified hfB protein 0.5 ug is 0.015 OD 405 nm.

What about the hemolysis OD 405 nm; Anti-hfD mAb 1600 ng + Purified hfB protein 0.5 ug [1] of the same substance?
The hemolysis OD 405 nm; Anti-hfD mAb 1600 ng + Purified hfB protein 0.5 ug was 0.014 OD 405 nm.

What about the hemolysis OD 405 nm; Anti-hfD mAb 2400 ng + Purified hfB protein 0.5 ug [1] of the same substance?
Its hemolysis OD 405 nm; Anti-hfD mAb 2400 ng + Purified hfB protein 0.5 ug is 0.049 OD 405 nm.

“mouse monoclonal antibody against human factor B (Quidel, Catalog# A227)” was tested. Which hemolysis OD 405 nm; Anti hfB mAb 0.4 ug + Mouse serum 50 ul (1:6 Diluted) [2] did it give?
Its hemolysis OD 405 nm; Anti hfB mAb 0.4 ug + Mouse serum 50 ul (1:6 Diluted) is 0.074 OD 405 nm.

What about the hemolysis OD 405 nm; Anti hfB mAb 0.4 ug + Purified hfB Protein 0.5 ug [3] of the same substance?
The hemolysis OD 405 nm; Anti hfB mAb 0.4 ug + Purified hfB Protein 0.5 ug was 0.051 OD 405 nm.

And the hemolysis OD 405 nm; Anti hfB mAb 0.8 ug + Purified hfB Protein 0.5 ug [3]?
Its hemolysis OD 405 nm; Anti hfB mAb 0.8 ug + Purified hfB Protein 0.5 ug is 0 OD 405 nm.
